{
  "source": "paper PMC11461620",
  "about": "(Nature Communications, 2024)",
  "proteins": {"B1": {"name": "β-barrel domain of E. coli BamA (residues 426–810) (domain or fragment)", "chain": "not shown", "modifications": "biotin (EZ-Link NHS-PEG4-Biotin, chemical) in the SPR experiment only"}},
  "molecular_target": "the molecule itself",
  "test": "crystal structure",
  "data": [
    {"protein": "B1", "values": [
      {"measurement": "binding result", "value": "binds"}
    ]}
  ]
}
